Reference: article PMC7821874 (Science Advances, 2020)
Each block holds one binder with its values, some of them ahead of it.

Legend:
[1] = biological target: the molecule itself; assay: negative stain electron microscopy
[2] = biological target: T1, wild-type (WT) human CAV1α with a C-terminal 6X-Histidine tag (human), Q03135; assay: negative stain electron microscopy; details: remark: other sources report otherwise
T1 chain: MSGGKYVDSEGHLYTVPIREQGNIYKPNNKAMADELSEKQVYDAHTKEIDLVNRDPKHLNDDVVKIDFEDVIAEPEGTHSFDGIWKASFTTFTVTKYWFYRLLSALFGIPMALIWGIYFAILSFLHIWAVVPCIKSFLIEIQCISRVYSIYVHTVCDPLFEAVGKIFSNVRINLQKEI

B1: CAV1β with a 6X His-tag at the C terminus (natural protein, human, UniProt Q03135 32-178, looked up)
chain: MADELSEKQVYDAHTKEIDLVNRDPKHLNDDVVKIDFEDVIAEPEGTHSFDGIWKASFTTFTVTKYWFYRLLSALFGIPMALIWGIYFAILSFLHIWAVVPCIKSFLIEIQCISRVYSIYVHTVCDPLFEAVGKIFSNVRINLQKEI
- binding result [1]: binds

B2: CAV1β-Venus (natural protein, human, UniProt Q03135 32-178, looked up)
chain: B1 chain
- binding result [1]: binds

- stoichiometry N [2]: 10
B3: wild-type (WT) human CAV1α with a C-terminal 6X-Histidine tag, Q03135 1-178 (natural protein)
chain: T1 chain
